Test results published in the supplement of paper PMC10567573.

B1: MYBL2 (parent)
chain: FSPSQFLNFWNKQDTLELESPSLT
B2: WDFY1 (parent)
chain: FWNIKQMWDTKTLGLRQHHCRKCG

Variants of: B1
Test: protein stability index of a GFP-peptide fusion (GPS, HEK-293T) (PSI 1-6); higher = more stable
Settings: c terminus: a fixed tail appended
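Also: lentivirally expressed fusions sorted by FACS into six bins by GFP to DsRed ratio, PSI derived from sequencing read proportions per bin multiplied by bin number.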

Protein stability index of substitutions, site by site:
D14: R 4.08; P 2.98; F 3.92; S 1.31; M 2.63; Y 3.5; K 4.25; A 2.94; L 2.6; G 2.94; H 2.39; V 3.22; Q 2.89; C 4.04
P21: Y 2.69; F 3.56; L 3.37; G 3.5; M 3.16; V 2.53; N 3.41; R 2.36; K 3.01; E 2.64; W 3.86; C 2.77; D 2.2; T 2.36; I 3.74; Q 2.56; S 2.09
E17: H 2.37; Q 3.02; C 2.41; I 3.94; P 1.74; D 3.02; K 2.48; A 1.07; V 3.59; W 2.71; L 3.9; N 2.33; M 3.58; Y 2.41; R 2.45; S 3.58; F 1.84; T 2.41
L23: V 2.91; H 2.79; D 3.49; A 2.08; F 3.38; G 2.27; I 4.19; N 2.65; M 2.41; E 2.26; R 2.97; S 2.13; C 2.71
L16: T 1.5; Y 3.49; R 4.02; C 2.68; P 2.29; S 2.5; Q 3.33; H 3.68; V 2.19; D 3.85; E 1.26; M 2.56; F 3.19; A 3.1; G 4.14; K 2.75; I 2.58
K12: H 2.4; P 3.55; G 4.46; Y 3.78; R 2.52; M 3.42; T 2.59; A 2.9; F 2.97; V 4.37; N 2.84; Q 1.93; D 3.15; E 2.25; S 2.02; I 3.21
L18: T 3.04; C 2.55; K 2.98; E 3.1; D 2.79; F 3.19; M 2.88; S 1.84; N 1.98; V 3.28; P 2.1; Q 3.72; W 5.25; H 1.77; R 2.95; G 2.58; Y 3.16; I 2.61

Variants of: B2
Test: as above
Settings: c terminus: a fixed tail appended

Protein stability index, by site and new letter:
W2: L 2.47; D 2.19; Q 1.75; E 2.53; I 2.41; A 2.24; C 1.14; F 2.55; P 2.32; T 1.67; G 1.47; K 2.29; R 2.82; Y 2.74; S 1.62; V 2.71; H 1.43; M 2.32; N 2.46
N3: P 2.57; E 2.05; L 1.54; D 2.02; H 1.85; C 2.56; K 1.41; R 2.13; M 2.23; A 1.56; F 1.96; I 1.5; Q 1.96; T 1.23; S 1.61; G 2.17
F1: W 2.16; Q 2.31; R 1.54; N 2.76; A 2.11; P 2.29; K 2.45; Y 2.02; D 2.79; V 1.97; M 2.98; H 2.36; G 2.3; L 1.62; E 2.61; I 1.91; S 2.46; C 2.65; T 2.28
